# Earlier results in publication PMC10179296.
# Target: CCL2 (Homo sapiens) (UniProt P13500)
# Test: isothermal fluorescence titration
# CCL2 (Homo sapiens), sequence (P13500 24-99): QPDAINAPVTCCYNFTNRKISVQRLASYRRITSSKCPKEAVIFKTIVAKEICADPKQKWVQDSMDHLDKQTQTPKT
# Tenascin-C, sequence (P24821 23-2201): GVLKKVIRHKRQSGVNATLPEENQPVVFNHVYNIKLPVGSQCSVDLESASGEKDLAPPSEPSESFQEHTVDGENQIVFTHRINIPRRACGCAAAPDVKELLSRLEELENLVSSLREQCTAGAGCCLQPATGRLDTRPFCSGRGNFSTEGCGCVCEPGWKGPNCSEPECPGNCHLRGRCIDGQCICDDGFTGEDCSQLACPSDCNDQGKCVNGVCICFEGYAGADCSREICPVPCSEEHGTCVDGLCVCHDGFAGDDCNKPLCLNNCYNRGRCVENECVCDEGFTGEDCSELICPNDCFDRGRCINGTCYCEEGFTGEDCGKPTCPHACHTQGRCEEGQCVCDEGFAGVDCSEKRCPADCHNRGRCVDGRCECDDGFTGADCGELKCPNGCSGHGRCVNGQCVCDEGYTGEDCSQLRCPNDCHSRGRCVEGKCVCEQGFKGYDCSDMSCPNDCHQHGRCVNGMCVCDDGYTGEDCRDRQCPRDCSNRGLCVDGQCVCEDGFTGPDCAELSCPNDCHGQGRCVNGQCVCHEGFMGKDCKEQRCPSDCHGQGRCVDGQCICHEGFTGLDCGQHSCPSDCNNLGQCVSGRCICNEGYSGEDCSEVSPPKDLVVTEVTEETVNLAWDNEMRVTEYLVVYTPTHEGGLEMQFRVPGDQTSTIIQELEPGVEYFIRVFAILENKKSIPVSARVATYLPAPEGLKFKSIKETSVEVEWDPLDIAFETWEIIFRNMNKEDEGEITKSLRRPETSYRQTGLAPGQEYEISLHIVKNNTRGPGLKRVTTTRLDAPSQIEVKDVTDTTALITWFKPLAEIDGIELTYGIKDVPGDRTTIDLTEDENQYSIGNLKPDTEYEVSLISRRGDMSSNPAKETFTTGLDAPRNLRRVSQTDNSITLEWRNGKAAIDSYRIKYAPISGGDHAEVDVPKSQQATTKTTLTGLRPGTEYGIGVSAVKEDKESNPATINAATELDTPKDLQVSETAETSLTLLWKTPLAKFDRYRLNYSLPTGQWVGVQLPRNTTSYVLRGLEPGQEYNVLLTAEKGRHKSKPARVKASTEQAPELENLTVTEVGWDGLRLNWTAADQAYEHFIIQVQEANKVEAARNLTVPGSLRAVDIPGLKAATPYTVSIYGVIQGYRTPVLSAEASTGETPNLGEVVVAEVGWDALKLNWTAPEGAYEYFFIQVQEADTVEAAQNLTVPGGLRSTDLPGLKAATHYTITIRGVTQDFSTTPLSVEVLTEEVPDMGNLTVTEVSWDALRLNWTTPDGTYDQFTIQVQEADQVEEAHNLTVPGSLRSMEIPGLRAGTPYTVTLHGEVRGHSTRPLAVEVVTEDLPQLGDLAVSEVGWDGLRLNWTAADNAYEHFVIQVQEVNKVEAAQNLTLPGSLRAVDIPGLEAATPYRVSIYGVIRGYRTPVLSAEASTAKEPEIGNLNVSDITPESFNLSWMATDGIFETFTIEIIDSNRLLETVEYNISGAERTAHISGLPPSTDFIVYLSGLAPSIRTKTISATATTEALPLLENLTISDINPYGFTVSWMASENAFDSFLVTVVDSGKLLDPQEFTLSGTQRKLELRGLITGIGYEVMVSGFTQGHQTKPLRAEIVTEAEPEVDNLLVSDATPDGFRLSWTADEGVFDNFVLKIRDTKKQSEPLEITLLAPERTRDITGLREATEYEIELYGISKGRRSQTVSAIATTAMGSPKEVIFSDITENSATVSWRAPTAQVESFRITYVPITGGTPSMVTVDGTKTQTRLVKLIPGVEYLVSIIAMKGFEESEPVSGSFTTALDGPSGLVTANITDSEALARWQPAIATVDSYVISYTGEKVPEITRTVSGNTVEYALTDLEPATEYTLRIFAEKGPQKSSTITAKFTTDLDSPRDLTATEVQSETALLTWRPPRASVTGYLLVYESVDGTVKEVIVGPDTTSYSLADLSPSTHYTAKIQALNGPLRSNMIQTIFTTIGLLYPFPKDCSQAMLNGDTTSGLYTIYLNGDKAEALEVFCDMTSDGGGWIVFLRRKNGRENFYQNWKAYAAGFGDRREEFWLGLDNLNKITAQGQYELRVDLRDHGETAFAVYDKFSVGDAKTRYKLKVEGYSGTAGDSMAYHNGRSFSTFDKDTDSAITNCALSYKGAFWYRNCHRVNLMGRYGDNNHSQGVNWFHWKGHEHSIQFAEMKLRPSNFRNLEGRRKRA
substance,measurement,value
Tenascin-C (from UniProt P24821),Kd,2330 nM
